Our source for the stoichiometry N (RIII:S1 molar ratio) values is PMC9409239.

This test deals with N-terminally His-tagged recombinant ribosomal protein S1 of E. coli (from plasmid p16rpsAHis) (E. coli) (UniProt P0AG67). As to the kind of experiment: native gel or EMSA; constant molar amount of S1 mixed with increasing RIII (RIII:S1 0.1:1 to 5:1), 10 min at room temperature, proteins dialysed against 50 mM sodium phosphate pH 7.4, 100 mM NaCl; native 14% PAGE, Coomassie. (In general: A gel shift assay detects complexes by their altered migration in electrophoresis.)

As for “N-terminally 6His-tagged RIII protein of the T4 phage (from plasmid p21drIIIHis) (natural protein)”, the stoichiometry N (RIII:S1 molar ratio) is 1.
